The values below come from article PMC12724223.

The target in this assay is T cell receptor subunit CD3ζ (human) (human (endogenous in primary CD4+ T cells)).

The substance “SIVmac239 I123L L146F Nef (natural protein)” showed a fold downregulation of cell surface CD3 relative to ΔNef, transduced primary huCD4+ T cells, flow cytometry (Fig. 5B) of 2.7 fold.

Substance SIVmac239 WT Nef (natural protein) had a fold downregulation of cell surface CD3 relative to ΔNef, transduced primary huCD4+ T cells, flow cytometry (Fig. 5B) of 15.2 fold.
